Assay [1] has as its target rfibulin-4 and rfibulin-5 (mouse). The experiment in a line: SPR; Ltbp-4L-2xStrep and Ltbp-4S-2xStrep after PNGase F digest under non-denaturing conditions, flown over rfibulin-4 and rfibulin-5 immobilized on a Biacore chip; response compared before and after deglycosylation; n=2. On the technique in general: SPR reads the build-up and loss of mass on a sensor chip optically.

For assay [2], the target named is T1, recombinant full-length fibulin-4 (mouse, UniProt Q9WVJ9 28-443).
T1 construct: Fibulin-4, mouse, full length after the signal peptide; also called rfibulin-4; source: HEK 293 EBNA cells, stably expressed, purified from conditioned medium (streptactin-Sepharose)
T1 sequence (looked up): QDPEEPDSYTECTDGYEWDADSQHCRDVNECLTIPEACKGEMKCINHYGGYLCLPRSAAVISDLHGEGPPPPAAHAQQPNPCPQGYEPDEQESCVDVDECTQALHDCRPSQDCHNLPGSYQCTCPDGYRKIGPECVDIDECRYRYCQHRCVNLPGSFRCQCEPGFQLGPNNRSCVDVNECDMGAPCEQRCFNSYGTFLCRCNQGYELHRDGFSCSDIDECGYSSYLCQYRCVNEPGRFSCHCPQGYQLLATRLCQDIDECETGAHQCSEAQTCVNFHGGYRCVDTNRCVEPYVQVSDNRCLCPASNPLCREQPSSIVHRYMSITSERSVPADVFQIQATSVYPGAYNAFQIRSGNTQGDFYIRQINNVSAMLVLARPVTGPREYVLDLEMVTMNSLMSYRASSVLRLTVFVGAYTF
In words: SPR; BIAcore2000; 570 RUs of rfibulin-4 or 390 RUs of rfibulin-5 amine-coupled to carboxymethyldextran hydrogel 500M chips; Ltbp-4L-2xStrep (0-320 nM) or Ltbp-4S-2xStrep (0-80 nM) flown over as analyte; 1:1 Langmuir fits, kobs plotted against concentration; apparent Kd = koff/kon. Conditions: both partners purified.

Assay [3] addresses T2, recombinant full-length fibulin-5 (mouse, UniProt Q9WVH9 24-448).
T2 construct: Fibulin-5, mouse, full length after the signal peptide; also called rfibulin-5; source: HEK 293 EBNA cells, stably expressed, purified from conditioned medium (streptactin-Sepharose)
T2 sequence (looked up): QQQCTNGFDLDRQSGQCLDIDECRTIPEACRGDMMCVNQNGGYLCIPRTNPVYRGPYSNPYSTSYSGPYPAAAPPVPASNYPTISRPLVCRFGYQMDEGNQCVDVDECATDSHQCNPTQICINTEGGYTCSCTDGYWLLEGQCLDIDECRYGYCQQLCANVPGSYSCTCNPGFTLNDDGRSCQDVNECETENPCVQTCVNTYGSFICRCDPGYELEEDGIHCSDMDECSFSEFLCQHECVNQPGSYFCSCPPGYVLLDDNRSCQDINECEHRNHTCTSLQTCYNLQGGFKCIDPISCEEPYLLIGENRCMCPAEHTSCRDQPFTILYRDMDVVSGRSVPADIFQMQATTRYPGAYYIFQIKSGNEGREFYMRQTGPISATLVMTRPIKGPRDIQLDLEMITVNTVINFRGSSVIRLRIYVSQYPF
The assay is described as above. Particulars: both partners purified.

In turn, “Ltbp-4S-2xStrep after deglycosylation with PNGase F under non-denaturing conditions (domain or fragment)” returned a percent increase of the SPR signal after deglycosylation (against Ltbp-4S-2xStrep before deglycosylation) in assay [1] of 15 to 20%.

B1: Ltbp-4S-2xStrep (N-terminal fragment of mouse Ltbp-4S) (domain or fragment, UniProt Q8K4G1-2 27-211, looked up)
chain: RPRERLRVRFTPAVCGLRCIHGPTGSRCTPTCAPRNATSVDSGAPGGAAPGGPGFRAFLCPLICHNGGVCVKPDRCLCPPDFAGKFCQLHSSGARPPAPAMPGLTRSVYTMPLANHRDDEHGVASMVSVHVEHPQEASVVVHQVERVSGPWEEANPEALARAEAAARAEAAAPYTVLAQSAPRED
modifications: N-linked glycosylation (shift after PNGase F), residue not given
notes: the first 185 amino acids after the signal peptide (Arg27-Asp211); numbers count on: the short isoform Ltbp-4S; Cloned into a modified pCEP-Pu vector with a 3' 2xStrepII tag through NheI and XhoI; also called N-terminal Ltbp-4S; Ltbp-4S N-terminal fragment; source: HEK 293 EBNA cells, stably expressed, purified from conditioned medium (streptactin-Sepharose); not shown: 2xStrepII, C-terminal, kept
In the case of B1, in assay [2], the Kd is 15.4 nM, the koff is 0.0108 s⁻¹ and the kon stood at 700000 M⁻¹ s⁻¹. Further, in assay [3], the Kd worked out at 15.8 nM, the koff was determined as 0.0158 s⁻¹ and the kon was 1e+06 M⁻¹ s⁻¹.

B2: Ltbp-4L-2xStrep (N-terminal fragment of mouse Ltbp-4L) (domain or fragment, UniProt Q8K4G1-1 25-277, looked up)
chain: SGSSPSPSPSPIEKAVVPSHQAGVAACHCCLDQTPKSSRCTRASCRVRNCPPAKCTGLEGCLTPTPSVPSPSRSPVEKSQVSLNWQPLTLQEARALLRQRRPRGPWARALLKRRPPHRAPAGQARVLCPLICHNGGVCVKPDRCLCPPDFAGKFCQLHSSGARPPAPAMPGLTRSVYTMPLANHRDDEHGVASMVSVHVEHPQEASVVVHQVERVSGPWEEANPEALARAEAAARAEAAAPYTVLAQSAPRED
notes: the first 253 amino acids after the signal peptide (Ser25-Asp277); numbers count on: the long isoform Ltbp-4L; Cloned into a modified pCEP-Pu vector with a 3' 2xStrepII tag through NheI and XhoI; also called N-terminal Ltbp-4L; Ltbp-4L N-terminal fragment; source: HEK 293 EBNA cells, stably expressed, purified from conditioned medium (streptactin-Sepharose); not shown: 2xStrepII, C-terminal, kept
With B2, in assay [2], the Kd was 3.1 nM, the koff came out at 0.0041 s⁻¹ and the kon was 1.3e+06 M⁻¹ s⁻¹. Further, in assay [3], the Kd was found to be 2.4 nM, the koff is 0.0053 s⁻¹ and the kon turned out to be 2.2e+06 M⁻¹ s⁻¹.

One may read the koff as a measure of how fast the partners let go of each other. One may read the kon as the rate constant with which the complex forms.

These data come from publication PMC4381339, “Modeling autosomal recessive cutis laxa type 1C in mice reveals distinct functions for Ltbp-4 isoforms” (Disease Models & Mechanisms, 2015).
